Test results as given in paper PMC13344149, “One-step purification of a bioactive PAK1-derived peptide” (Analytical biochemistry, 2025).

Experiments:
[1] = biological target: the molecule itself; assay: LC-MS; LC-MS of the heat-treated PBD46 sample; major species at 10.23 kDa
[2] = biological target: T1, Cdc42 labelled with the extrinsic fluorophore sNBD (UniProt P60953 1-191, sNBD fluorophore (site not stated)); assay: other fluorescence titration; Cdc42 labelled with the extrinsic fluorophore sNBD, PBD46 titrated; heat-purified and conventional PBD46 compared; details: both partners purified
T1 construct: Cdc42, small GTPase; also called sNBD-labeled Cdc42
T1 sequence (P60953 whole entry): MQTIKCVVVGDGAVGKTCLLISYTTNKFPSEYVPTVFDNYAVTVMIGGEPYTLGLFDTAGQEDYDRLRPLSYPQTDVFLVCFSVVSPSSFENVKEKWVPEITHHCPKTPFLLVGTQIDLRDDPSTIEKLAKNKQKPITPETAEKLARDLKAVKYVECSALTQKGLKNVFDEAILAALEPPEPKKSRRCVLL

Kd [2]: ~83 nM
B1: PBD46, 46-residue peptide from PAK1 (PAK1 CRIB domain, residues 67-112) (peptide, UniProt Q13153 67-112, looked up)
chain: KKEKERPEISLPSDFEHTIHVGFDAVTGEFTGMPEQWARLLQTSNI
notes: The heat-purified and the conventionally purified sample are the same construct from the same host; also called PAK1-derived peptide; heat-purified PBD46; source: E. coli, as GST-PBD46
stoichiometry N [1]: 2
